# Assays:
# Pin1 (GST-Pin1) = Pin1 (GST-Pin1) (UniProt Q13526); assay: GST-Pin1 pull-down from U2OS lysate; details: reference: SST-MTAP (wild type); sites S398,S405,T408
# spindly = spindly (UniProt Q96EA4); assay: SBP affinity purification, immunoblot; details: reference: SST-MTAP, sites S398,S405,T408
# [1] = biological target: GST-tagged Pin1 (prolyl isomerase interacting NIMA 1) (UniProt Q13526 1-163); assay: pull-down
molecule,measurement,setting,value
hLIC1 (dynein light intermediate chain 1) (from UniProt Q9Y6G9) AAA-MTAP,binding against the reference,Pin1 (GST-Pin1),weaker
"hLIC1 (dynein light intermediate chain 1) (from UniProt Q9Y6G9) AAA-MTAP, metaphase lysate",binding against the reference,spindly; metaphase lysate,weaker
"hLIC1 (dynein light intermediate chain 1) (from UniProt Q9Y6G9) AAA-MTAP, prometaphase lysate",binding against the reference,spindly; prometaphase lysate,weaker
"purified rLIC1-CTD (aa 389-523), phosphorylated in vitro by cdk1-cyclin B (domain or fragment, rat, UniProt Q9QXU8 389-523, looked up, phosphorylated in vitro by cdk1-cyclin B (three cdk1 sites S398, S405, T408)) TAAGRPVDASPRVPGGSPRTPNRSVSSNVASVSPIPAGSKKIDPNMKAGATSEGVLANFFNSLLSKKTGSPGGPGVGGSPGGGAAGASTSLPPSAKKSGQKPVLSDVHAELDRITRKPASVSPTTPPSPTEGEAS",binding result,[1],binds

# — PMC8562849 (The Journal of Cell Biology, 2021)
